Measured values published in the RNAGym collection of RNA variant scans (doi:10.1073/pnas.2313332121).

B1: TPR t1 (parent)
chain: GACCAAUCUGCCCUCAGAGCUCGAGAACAUCUUCGGAUGCAGAGGAGGCAGGCUUCGGUGGCGCGAUAGCGCCAACGUCCUCAACCUCCAAUGCAUCCCACCACAUGAUGAUGCCUGAAGAGCCUUGGUUUUUUG

Variants of: B1
Assay: polymerase ribozyme fitness, log enrichment relative to wild type (log ratio); higher = more active; in vitro selection for triplet polymerase activity
Outline: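 Both subunits of a heterodimeric triplet polymerase ribozyme were given their own mutant library, built by PCR and transcribed. Each library was annealed with a biotinylated primer, the partner subunit and triplets, incubated frozen at −7 °C, and its extended constructs gel-excised, captured on streptavidin beads and amplified by RT-PCR, all in one round done in triplicate. Fitness is the logarithm of genotype enrichment relative to wild-type enrichment, with replicates averaged by inverse-variance weighting. That logarithm is base 2, and Illumina-sequenced genotypes needed ≥10 input reads and ≥1 read per output.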

Row | Variant | polymerase ribozyme fitness (log ratio)
1 | C73U A95C U130A | -1.26
2 | C76G U78A | 0.247
3 | G77U U78G C123A | -0.257
4 | C73G U78A C94A U125G | -1.59
5 | A74C C82A | -0.0256
6 | A74G A91G G93C G120C | -2.64
7 | A74G G120C | 0.921
8 | C73U U92G | -2.88
9 | C76G G120U U129A | -1.93
10 | A74G C79A C82A U112A | -2.42
11 | C73G C124U | 0.25
12 | A75G C79U | -0.682
13 | G77C C124U | 1.82
14 | A74G A119G | 0.969
15 | A75U C104A A121U C124U | 0.403
16 | U78A U131C | 0.382
17 | G77U G120A | -0.148
18 | G77U G120C | 0.43
19 | A75G A121G | 1.42
20 | C73U C86U U96C A119G U131C | 0.735
21 | C73G C114U | -3.1
22 | G77C G120C | 0.526
23 | C73G C101A | -1.3
24 | C76U A121U | 2.22

Row | Variant | polymerase ribozyme fitness (log ratio)
25 | C76U A121C | 2.01
26 | C73G C98U U129C | -1.94
27 | U78A C79U | 0.293
28 | A74G G77U C98U C104A | -2.74
29 | U78A G93C | -0.506
30 | A74U C115U A118U C124U | -0.812
31 | A74G U87A G117C G120A A121U U129A | -6.07
32 | A75U C79G C88U U130G | -2.82
33 | G77C C86U A90C U125A | -1.83
34 | A74U A75U U81A G127U | -1.96
35 | A74U C98A C99A | -6.51
36 | C76U A118G | -0.0957
37 | G77C C89U G110C G135A | -4.53
38 | A74C A83C | -0.243
39 | A74C C102U | -1.76
40 | C73U A84G | -0.874
41 | C73G U109A C114U C123A U130G U132A | -4.38
42 | A74G A91C C124G | 0.0731
43 | C73G G127U | -1.75
44 | C73U G93A | -0.23
45 | C76A C79U C82G A100C C101A | -4.79
46 | U78A C88U U96G U129A U131A | -2.62
47 | C73U C86G | -2.49
48 | C73U C86U | 0.0966

Row | Variant | polymerase ribozyme fitness (log ratio)
49 | U78A G128A | -1.76
50 | G77C U81G | -1.57
51 | A75U U81G | -3.97
52 | A74C C89A A91G C102A U109G | -5.5
53 | A74G A100U G128U | -3.08
54 | A74C G117U | -2.81
55 | A74C C80A C101G C123A | -4.26
56 | C73U A83G | -1.56
57 | A75U G117C | -3.99
58 | C76A G127U | -2.17
59 | C73U A121G | 2.17
60 | U78A U96C C104U | 0.046
61 | C76G C114U | -2.74
62 | G77U A95C C102A | -3.06
63 | G77A C80U G113A | -1.46
64 | A74U A83G | -0.972
65 | C73U A84G G117C | -4.85
66 | G77A C86U U112A | 1.14
67 | C76A A105U C124A | -1.25
68 | G77U C104G | -6.6
69 | C73U G77C G93A C124U U126G | -1.68
70 | C76A U78A A91U U112G | -3.63
71 | C73U G120U | 0.0471
72 | C73U A119G C123G | 2.02

Row | Variant | polymerase ribozyme fitness (log ratio)
73 | A75G C102A | -1.52
74 | U78C A83C C89G | -2.02
75 | A74C U130A U131A U133A | -2.13
76 | A75G A83C U130C U132A | 0.388
77 | U78A G120U | -0.295
78 | C73G C82A A90U C123G | -0.559
79 | A74C C102G U112C | -4.5
80 | G77A C80A U92C | -5.14
81 | C73U C80G A118U | -4.47
82 | A74C C82A G113U C124A G128C U131G | -4.12
83 | C76G G120A | 0.286
84 | G77A U78G | -0.219
85 | U78C A90C | -0.796
86 | G77A C80A G120U | -2.54
87 | C73U A75U U87A U92A | -4.13
88 | A74C C101G U109A | -6.47
89 | C73G U125A | -1.21
90 | C76U U81C A100U G110A | -3.78
91 | A74U C82G C123U U131A U134C | 0.478
92 | U78A C79U U112A U131G | 0.67
93 | C73U U92A G93A | -4.03
94 | C73G C104U | -0.454
95 | G77A C123U | 1.1
96 | G77A C123G | 1.16

Row | Variant | polymerase ribozyme fitness (log ratio)
97 | G77A G110U | -1.1
98 | G77A G110A | -1.28
99 | U78A C104A | -1.8
100 | C73U C79G A119G C123A | -0.377
101 | G77C A95C G113A | -2.42
102 | C73G U112A | -0.766
103 | G77U G117A | -1.62
104 | A74C C89A U96A C115A | -3.51
105 | A74U A118U | -0.576
106 | C73U C124A | 2.11
107 | C73U G93C G113A C124G | -1.29
108 | C76A C82U A95G C104G G120C | -5.79
109 | C73G C123G | 1.2
110 | A74U C82U G120A G122U | -0.0704
111 | C73U U87C C88U A111G C123A | -2.06
112 | C73U C88U U125G | -1.1
113 | G77U C88U C115U U131A | -1.33
114 | G77A C102A | -2.07
115 | C76A C94U G117C | -5.54
116 | U78A G107A | -5.55
117 | C76G A91U U132A | -1.52
118 | C73U G128U | -1.62
119 | A75G C82U A83C G93A A105C | -3.08
120 | C76G G93A C115G | -4.44

Row | Variant | polymerase ribozyme fitness (log ratio)
121 | C73G G113C C123U G135A | -3.03
122 | C76G G122A | -1.36
123 | C73U C94A C104U G117U | -3.3
124 | C73U U125C | -2.06
125 | A74U C115G U129A U130A | -2.87
126 | C76U U112A | 0.984
127 | A74C C94U | -0.6
128 | C76G C88G | -1.08
129 | C73U C99A C115A U125G | -6.08
130 | C73U C123G C124G | 2.14
131 | C76A C102A | -3.94
132 | G77C A83C | -0.826
133 | C76A C79U A90U A119C G120U | -1.56
134 | A74G G110A A111G | 0.0395
135 | A74U U112A G113C A118C | -3.21
136 | C76A A83C | -0.201
137 | G77C C124U G127A U129A | -0.0326
138 | G77A C101A G117A | -3.06
139 | C73U A103U | -4.35
140 | C76U G107C A121G U126A | -4.6
141 | C76G C88A C101A U130A | -1.71
142 | A75G U87A | -0.246
143 | C73G C89G U131A | -2.56
144 | C73U C94U | -0.847

Row | Variant | polymerase ribozyme fitness (log ratio)
145 | C73U C89A G120U | -2.25
146 | C76A C79G C123G | 0.511
147 | C76A U81A C89U | -1.33
148 | G77C U130G | -1.48
149 | U78C A83C G113U | -3.26
150 | C76A C98U | -1.53
151 | C73G G93A | -1.13
152 | C73G G93U | -3.13
153 | A74C U126G | -2.5
154 | G77U G113A G135A | -1.34
155 | C76U U87A G110A U130G | -2.07
156 | C76U U129G | -0.833
157 | C73U A95C | -1.16
158 | C76U C88A U133G | -0.912
159 | G77A C88U | -0.0927
160 | C73U G77A G120A | 0.241
161 | A74U A119G | 0.812
162 | U78A C101G | -2.13
163 | A74C A75U G110A | -1.52
164 | C73U C85A G120U | -0.527
165 | C73U C89G A100U | -2.03
166 | A74G A83C C114A C123G C124G | -0.429
167 | U78C A84C G113U G128A | -4.29
